One experiment has as its target T1, BclxLΔLT (Homo sapiens, UniProt Q07817, DEL45-84).
T1 construct: BclxLΔLT (residues 1–44 and 85–213); inferred from Ni-NTA purification; made in house; host or cells: E. coli BL21 (DE3)
In words: NMR-detected affinity measurement, alanine scanning of VDAC1-N peptides. Format: binding. To be noted: NMR CSP titration into 100 µM 2H,15N BclxLΔLT, 20 mM NaPi pH 7.0, 50 mM NaCl; one-site model; mean of individual NMR resonances as probes (n = 3). The text has this: The resulting chemical shift perturbation was plotted against the peptide concentration to extract KD values for each peptide using a one-site binding model using OriginPro (OriginLab) for data fitting.

Experiment [1] deals with human BclxLΔTM (soluble domain of BclxL, transmembrane helix deleted) (human) (UniProt Q07817).
The target of experiment [2] is human BclxLΔLT (BclxL without the flexible loop and the transmembrane helix) (human) (UniProt Q07817). In words: ITC; MicroCal PEAQ-ITC, 20 °C; BclxLΔLT in the cell (250 µM for the linear, 50 µM for the stapled peptide), peptide in the syringe (500 µM stapled); 10 mM NaPi pH 7.0, 50 mM NaCl, 0.5 mM EDTA, 1 mM DTT.
For experiment [3], the target named is human BclxLΔTM (soluble domain of BclxL, transmembrane helix deleted) (human) (UniProt Q07817). This is another data set of the same source.
Experiment [4] concerns the target T2, human BclxLΔLT (BclxL without the flexible loop and the transmembrane helix), Q07817-1.
T2 chain: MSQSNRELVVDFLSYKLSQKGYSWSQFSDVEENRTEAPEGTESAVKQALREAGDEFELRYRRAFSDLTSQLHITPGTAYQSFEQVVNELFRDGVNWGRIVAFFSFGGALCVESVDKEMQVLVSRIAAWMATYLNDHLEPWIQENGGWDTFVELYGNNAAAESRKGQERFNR
In words: NMR-detected affinity measurements (alanine scanning). To be noted: chain shown with the change;; parent: est. 0.2 mM; read off a plot.

Experiment [5] concerns the target T3, human BclxLΔLT (BclxL without the flexible loop and the transmembrane helix) (human, UniProt Q07817-1 1-212, flexible loop (residues 44–84) deleted).
T3 construct: BclxL, human, residues 1-43 and 85-212 (flexible loop 44-84 and transmembrane helix deleted); the NMR methods say 1-44 and 85-213; Isotope-labelled for NMR; In the crystal it stood fused to VDAC1-N(1-26) on one chain; source: E. coli BL21 (DE3), purified (Ni-NTA, SEC)
In words: crystal structure; single-chain BclxLΔLT-VDAC1-N construct, crystal from 1.6 M ammonium sulfate, 0.1 M bicine pH 9.0, 292 K; 1.95 Å. To be noted: both partners purified.

In experiment [6] the target is T4, human BclxLΔTM (soluble domain of BclxL, transmembrane helix deleted) (human, UniProt Q07817-1 1-212).
T4 construct: BclxL, human, soluble domain without the transmembrane helix, residues 1-212 (the NMR methods say 1-213); 2H,15N-labelled where it was the observed species in NMR; source: E. coli BL21 (DE3), purified (Ni-NTA, SEC)
In words: NMR titration; 100 µM 15N-labelled VDAC1-N peptide with a 5-fold excess of unlabelled BclxLΔTM; 20 mM NaPi pH 7.0, 50 mM NaCl, 303 K, 500 MHz. The note with it: both partners purified.

For experiment [7], the target named is human BclxLΔLT (BclxL without the flexible loop and the transmembrane helix) (human) (UniProt Q07817). In words: NMR titration; alanine scan: VDAC1-N peptides titrated into 100 µM 2H,15N-BclxLΔLT; 20 mM NaPi pH 7.0, 50 mM NaCl, 0.5 mM EDTA, 5 mM DTT; KD from chemical shift perturbations, one-site binding model.
Experiment [8] concerns the target human BclxLΔLT (BclxL without the flexible loop and the transmembrane helix) (human, UniProt Q07817-1 1-212, flexible loop (residues 44–84) deleted). In words: NMR.

For orientation: Kd means a measure of binding affinity in units of concentration.

Residues, ends and D or L forms follow the SMILES beside them.

T1 sequence (Q07817 with tags, fused parts or gaps DEL45-84 limits assumed): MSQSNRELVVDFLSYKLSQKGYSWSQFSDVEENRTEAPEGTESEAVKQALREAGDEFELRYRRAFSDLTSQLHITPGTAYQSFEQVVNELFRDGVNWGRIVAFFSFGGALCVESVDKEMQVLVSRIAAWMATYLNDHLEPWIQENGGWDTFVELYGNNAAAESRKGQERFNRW

`CC(C)C[C@H](NC(=O)[C@H](CC(=O)O)NC(=O)[C@H](C)NC(=O)[C@@H](N)Cc1ccc(O)cc1)C(=O)NCC(=O)N[C@@H](CCCCN)C(=O)N[C@@H](CO)C(=O)N[C@@H](C)C(=O)N[C@@H](CCCNC(=N)N)C(=O)N[C@@H](CC(=O)O)C(=O)N[C@H](C(=O)N[C@@H](Cc1ccccc1)C(=O)N[C@@H](C)C(=O)N[C@@H](CCCCN)C(=O)NCC(=O)O)C(C)C` [T19A] (H-YADLGKSARDVFAKG-OH) displayed a Kd at BclxLΔLT of 201 µM. `CC(C)C[C@H](NC(=O)[C@H](C)NC(=O)[C@H](C)NC(=O)[C@@H](N)Cc1ccc(O)cc1)C(=O)NCC(=O)N[C@@H](CCCCN)C(=O)N[C@@H](CO)C(=O)N[C@@H](C)C(=O)N[C@@H](CCCNC(=N)N)C(=O)N[C@@H](CC(=O)O)C(=O)N[C@H](C(=O)N[C@@H](Cc1ccccc1)C(=O)N[C@H](C(=O)N[C@@H](CCCCN)C(=O)NCC(=O)O)[C@@H](C)O)C(C)C` [D9A] (H-YAALGKSARDVFTKG-OH) came in with a Kd on BclxLΔLT of 1070 µM. Take `CC(C)C[C@H](NC(=O)[C@H](CC(=O)O)NC(=O)[C@H](C)NC(=O)[C@@H](N)Cc1ccc(O)cc1)C(=O)NCC(=O)N[C@@H](CCCCN)C(=O)N[C@@H](CO)C(=O)N[C@@H](C)C(=O)N[C@@H](CCCNC(=N)N)C(=O)N[C@@H](CC(=O)O)C(=O)N[C@@H](C)C(=O)N[C@@H](Cc1ccccc1)C(=O)N[C@H](C(=O)N[C@@H](CCCCN)C(=O)NCC(=O)O)[C@@H](C)O` [V17A] (H-YADLGKSARDAFTKG-OH): on BclxLΔLT, the equilibrium dissociation constant (Kd) was 713 µM. On the same count and under the same terms, in the case of `CC(C)C[C@H](NC(=O)[C@H](CC(=O)O)NC(=O)[C@H](C)NC(=O)[C@@H](N)Cc1ccc(O)cc1)C(=O)NCC(=O)N[C@@H](CCCCN)C(=O)N[C@@H](CO)C(=O)N[C@@H](C)C(=O)N[C@@H](CCCNC(=N)N)C(=O)N[C@@H](CC(=O)O)C(=O)N[C@H](C(=O)N[C@@H](Cc1ccccc1)C(=O)N[C@H](C(=O)N[C@@H](CCCCN)C(=O)NCC(=O)O)[C@@H](C)O)C(C)C` [VDAC1 wt] it was 165 µM; in that of `CC(C)C[C@H](NC(=O)[C@H](CC(=O)O)NC(=O)[C@H](C)NC(=O)[C@@H](N)Cc1ccc(O)cc1)C(=O)NCC(=O)N[C@@H](CCCCN)C(=O)N[C@@H](CO)C(=O)N[C@@H](C)C(=O)N[C@@H](CCCNC(=N)N)C(=O)N[C@@H](CC(=O)O)C(=O)N[C@H](C(=O)N[C@@H](C)C(=O)N[C@H](C(=O)N[C@@H](CCCCN)C(=O)NCC(=O)O)[C@@H](C)O)C(C)C` [F18A] (H-YADLGKSARDVATKG-OH), 367 µM.

`CC(C)C[C@H](NC(=O)[C@H](CC(=O)O)NC(=O)[C@H](C)NC(=O)[C@@H](N)Cc1ccc(O)cc1)C(=O)N[C@@H](C)C(=O)N[C@@H](CCCCN)C(=O)N[C@@H](CO)C(=O)N[C@@H](C)C(=O)N[C@@H](CCCNC(=N)N)C(=O)N[C@@H](CC(=O)O)C(=O)N[C@H](C(=O)N[C@@H](Cc1ccccc1)C(=O)N[C@H](C(=O)N[C@@H](CCCCN)C(=O)NCC(=O)O)[C@@H](C)O)C(C)C` [G11A] (H-YADLAKSARDVFTKG-OH) showed a Kd at BclxLΔLT of 609 µM.

The molecule `CC(C)[C@H](NC(=O)[C@H](CC(=O)O)NC(=O)[C@H](CCCNC(=N)N)NC(=O)[C@H](C)NC(=O)[C@H](CO)NC(=O)[C@H](CCCCN)NC(=O)CNC(=O)[C@H](C)NC(=O)[C@H](CC(=O)O)NC(=O)[C@H](C)NC(=O)[C@@H](N)Cc1ccc(O)cc1)C(=O)N[C@@H](Cc1ccccc1)C(=O)N[C@H](C(=O)N[C@@H](CCCCN)C(=O)NCC(=O)O)[C@@H](C)O` [L10A] (H-YADAGKSARDVFTKG-OH) showed a Kd at BclxLΔLT of 4030 µM.

`CC(C)C[C@H](NC(=O)[C@H](CC(=O)O)NC(=O)[C@H](C)NC(=O)[C@H](C)N)C(=O)NCC(=O)N[C@@H](CCCCN)C(=O)N[C@@H](CO)C(=O)N[C@@H](C)C(=O)N[C@@H](CCCNC(=N)N)C(=O)N[C@@H](CC(=O)O)C(=O)N[C@H](C(=O)N[C@@H](Cc1ccccc1)C(=O)N[C@H](C(=O)N[C@@H](CCCCN)C(=O)NCC(=O)O)[C@@H](C)O)C(C)C` [Y7A] (H-AADLGKSARDVFTKG-OH) showed a Kd on BclxLΔLT of 446 µM.

`CC(C)C[C@H](NC(=O)[C@H](CC(=O)O)NC(=O)[C@H](C)NC(=O)[C@@H](N)Cc1ccc(O)cc1)C(=O)NCC(=O)N[C@@H](CCCCN)C(=O)N[C@@H](C)C(=O)N[C@@H](C)C(=O)N[C@@H](CCCNC(=N)N)C(=O)N[C@@H](CC(=O)O)C(=O)N[C@H](C(=O)N[C@@H](Cc1ccccc1)C(=O)N[C@H](C(=O)N[C@@H](CCCCN)C(=O)NCC(=O)O)[C@@H](C)O)C(C)C` [S13A] (H-YADLGKAARDVFTKG-OH) displayed a Kd at BclxLΔLT of 408 µM. With “wild-type VDAC1-N peptide of the alanine scanning set”, the rescue of cBid-activated Bak pore formation inhibited by BclxL (liposome permeabilization), 100 µM peptide in experiment [1] worked out at 80%. In the case of `CC(C)C[C@H](NC(=O)[C@H](CC(=O)O)NC(=O)[C@H](C)NC(=O)[C@@H](N)Cc1ccc(O)cc1)C(=O)NCC(=O)N[C@@H](CCCCN)C(=O)N[C@@H](CO)C(=O)N[C@@H](C)C(=O)N[C@@H](CCCNC(=N)N)C(=O)N[C@@H](C)C(=O)N[C@H](C(=O)N[C@@H](Cc1ccccc1)C(=O)N[C@H](C(=O)N[C@@H](CCCCN)C(=O)NCC(=O)O)[C@@H](C)O)C(C)C` [D16A] (H-YADLGKSARAVFTKG-OH), the Kd at BclxLΔLT was found to be 1260 µM. “hydrocarbon-stapled VDAC1 peptide encompassing residues 7–21 (stVDAC1-N) (from UniProt P21796 7-21)” showed a Kd in experiment [2] of 2 µM.

B1: Bad-BH3 peptide (residues 140–165) (peptide)
peptide: NLWAAQRYGRELRRMSDEFEGSFKGL
Turning to B1, the recovery of cBid-activated Bak pore formation inhibited by BclxL (liposome permeabilization); Bad-BH3 1 to 100 nM in experiment [3] turned out to be 50 nM.

B2: wild-type VDAC1-N peptide of the alanine scanning set S13A (peptide)
chain: MAVPPTYADLGKAARDVFTKGYGF
On to B2, for which the Kd in [4] turned out to be 400 µM.

B3: wild-type VDAC1-N peptide of the alanine scanning set D16A (peptide)
chain: MAVPPTYADLGKSARAVFTKGYGF
In the case of B3, the dissociation constant Kd in experiment [4] was 1200 µM.

B4: wild-type VDAC1-N peptide of the alanine scanning set T19A (peptide)
chain: MAVPPTYADLGKSARDVFAKGYGF
As for B4, the Kd in experiment [4] turned out to be 200 µM.

B5: VDAC1-N peptide (residues 1–26) (peptide, UniProt P21796 1-26, looked up)
peptide: MAVPPTYADLGKSARDVFTKGYGFGL
notes: VDAC1, human, N-terminal residues 1-26; Isotope-labelled (13C and 15N) for NMR; The same stretch 1-26 stands fused to the C-terminus of BclxLΔLT in m8; the row of the crystal structure uses m6 for that stretch; also called VDAC1-N (1–26); 15N-labeled VDAC1-N; source: E. coli, as His6-GB1-TEV fusion, Ni-NTA, TEV digestion, reverse Ni-NTA; not shown: His6, N-terminal, cleaved; GB1, N-terminal, …
In the case of B5, the binding result in [5] and in [6] was “binds” each time.

B6: wild-type VDAC1-N peptide of the alanine scanning set F18A (peptide)
chain: MAVPPTYADLGKSARDVATKGYGF
In the case of B6, the Kd in [4] worked out at 300 µM.

B7: wild-type VDAC1-N peptide of the alanine scanning set D9A (peptide)
chain: MAVPPTYAALGKSARDVFTKGYGF
In the case of B7, the Kd in experiment [4] was 1000 µM.

B8: wild-type VDAC1-N peptide of the alanine scanning set Y7A (peptide)
chain: MAVPPTAADLGKSARDVFTKGYGF
Take B8: the Kd in experiment [4] worked out at 400 µM.

B9: VDAC1-N L10A peptide (peptide)
chain: MAVPPTYADAGKSARDVFTKGYGF
Take B9: the fold reduction in affinity against wild-type VDAC1-N in experiment [7] stood at 20 fold. Also, the Kd in experiment [4] was 4000 µM; in experiment [8] it was around 9000 µM.

B10: wild-type VDAC1-N peptide of the alanine scanning set V17A (peptide)
chain: MAVPPTYADLGKSARDAFTKGYGF
B10: the Kd in [4] is 600 µM.

B11: wild-type VDAC1-N peptide of the alanine scanning set G11A (peptide)
chain: MAVPPTYADLAKSARDVFTKGYGF
With B11, the Kd in experiment [4] was 500 µM.

The values are drawn from article PMC12559223, “Structural basis of apoptosis induction by the mitochondrial voltage-dependent anion channel” (Nature Communications, 2025).
